Changes are numbered by the printed parent chain. Values joined by “and” are separate entries in the source; they are usually repeats but may differ in a detail not shown here. Equal values may be shown once.
Experiments:
NrdR [1] = biological target: T1, NrdR (Streptomyces coelicolor, UniProt O69980); experiment: isothermal titration calorimetry, one set of sites; format: binding
T1 construct: full-length wild type, C-terminal His tag (pET30a(+)::nrdR), E. coli BL21(DE3); apo dimer 44 kDa, dodecamer with ATP, octamer/tetramer with dATP + ATP

[2] = biological target: NrdRΔNΔC, truncated S. coelicolor NrdR lacking both N- and C-terminal domains (Streptomyces coelicolor) (UniProt O69980); experiment: SEC; analytical SEC, Superdex 200 PC 3.2/30, 7 °C; 50 mM Tris-HCl pH 8.5, 50 mM KCl, 10 mM MgCl2, 0.5 mM TCEP, nucleotides in sample and buffer; 64 µM NrdR samples
NrdR [3] = biological target: T1, NrdR; experiment: isothermal titration calorimetry, one set of sites; format: binding; conditions: 10 mM MgCl2, 50 mM Tris-HCl pH 8, 300 mM NaCl, 10% glycerol, 1 mM TCEP; 20 and 10 °C (which one not told)
[4] = biological target: the molecule itself; experiment: GEMMA (gas-phase electrophoretic mobility molecular analysis); with dATP + ATP (50 µM nucleotide) and equimolar Mg acetate; 0.08 and 0.16 mg/ml; 100 mM ammonium acetate pH 7.3, 0.005% Tween-20
[5] = biological target: the molecule itself; experiment: GEMMA (gas-phase electrophoretic mobility molecular analysis); with 50 µM dAMP and equimolar Mg acetate; 0.08 mg/ml; 100 mM ammonium acetate pH 7.3, 0.005% Tween-20
[6] = biological target: the molecule itself; experiment: cryo-EM structure; ATP-loaded NrdR; 1 mM ATP and 10 mM MgCl2 added to apo-protein, SEC in 50 mM Tris-HCl pH 8.0, 150 mM NaCl, 10 mM MgCl2, 1 mM TCEP, 0.5 mM ATP; 0.4 mg/ml (19 µM monomer) on grids
NrdR [7] = biological target: T2, NrdR (Streptomyces coelicolor M145, UniProt O69980 1-182); experiment: MST; 1 mM dATP + 1 mM ADP, 10 mM Mg2+; MST: 25 mM Tris-HCl pH 7.6, 150 mM NaCl, 10 mM MgCl2, 5% glycerol, 1 mM DTT, 0.05% Tween-20, nucleotides 1 mM each, 10 nM Cy5-dsDNA, room temperature; conditions: protein: recombinant; tags: C-terminal His6 (pET30a); chain copies: 4; label: 5'-Cy5 on sense strand; blunt
T2 sequence: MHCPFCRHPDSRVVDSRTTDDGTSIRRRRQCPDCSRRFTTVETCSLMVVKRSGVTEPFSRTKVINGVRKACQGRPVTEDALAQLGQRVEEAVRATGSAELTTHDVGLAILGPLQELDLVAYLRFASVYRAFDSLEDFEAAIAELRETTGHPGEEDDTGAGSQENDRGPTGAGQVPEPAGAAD

NrdR [8] = biological target: T2, NrdR; experiment: MST; 1 mM dATP + 1 mM ATP, 10 mM Mg2+; MST: 25 mM Tris-HCl pH 7.6, 150 mM NaCl, 10 mM MgCl2, 5% glycerol, 1 mM DTT, 0.05% Tween-20, nucleotides 1 mM each, 10 nM Cy5-dsDNA, room temperature; conditions: protein: recombinant; tags: C-terminal His6 (pET30a); chain copies: 4; label: 5'-Cy5 on sense strand; blunt
NrdR D15A/R17A = biological target: T3, NrdR D15A/R17A (Streptomyces coelicolor M145, UniProt O69980 1-182, D15A;R17A); experiment: MST; 1 mM dATP + 1 mM ATP; MST: 25 mM Tris-HCl pH 7.6, 150 mM NaCl, 10 mM MgCl2, 5% glycerol, 1 mM DTT, 0.05% Tween-20, nucleotides 1 mM each, 10 nM Cy5-dsDNA, room temperature; conditions: protein: recombinant; tags: C-terminal His6 (pET30a); label: 5'-Cy5 on sense strand; blunt
T3 sequence: T2 sequence with D15A, R17A

NrdR R17A = biological target: T4, NrdR R17A (Streptomyces coelicolor M145, UniProt O69980 1-182, R17A); experiment: as above; conditions: protein: recombinant; tags: C-terminal His6 (pET30a); label: 5'-Cy5 on sense strand; blunt
T4 sequence: T2 sequence with R17A

NrdR D15A = biological target: T5, NrdR D15A (Streptomyces coelicolor M145, UniProt O69980 1-182, D15A); experiment: as above; conditions: protein: recombinant; tags: C-terminal His6 (pET30a); label: 5'-Cy5 on sense strand; blunt
T5 sequence: T2 sequence with D15A

NrdR [9] = biological target: T2, NrdR; experiment: as above; conditions: protein: recombinant; tags: C-terminal His6 (pET30a); chain copies: 4; label: 5'-Cy5 on sense strand; blunt
NrdR [10] = biological target: T2, NrdR; experiment: MST; MST: 25 mM Tris-HCl pH 7.6, 150 mM NaCl, 10 mM MgCl2, 5% glycerol, 1 mM DTT, 0.05% Tween-20, nucleotides 1 mM each, 10 nM Cy5-dsDNA, room temperature; conditions: protein: recombinant; tags: C-terminal His6 (pET30a); chain copies: 4; label: 5'-Cy5 on sense strand; blunt

Nc1ncnc2c1ncn2[C@@H]1O[C@H](COP(=O)(O)OP(=O)(O)OP(=O)(O)O)[C@@H](O)[C@H]1O [ATP]
Kd (NrdR [1]): 4000 nM

Nc1ncnc2c1ncn2[C@H]1C[C@H](O)[C@@H](COP(=O)(O)OP(=O)(O)O)O1 [dADP]
Kd (NrdR [1]): 400 nM

Nc1ncnc2c1ncn2[C@H]1C[C@H](O)[C@@H](COP(=O)(O)OP(=O)(O)OP(=O)(O)O)O1 [dATP]
Kd (NrdR [1]): 1000 nM

NrdRΔNΔC, truncated S. coelicolor NrdR lacking both N- and C-terminal domains (from UniProt O69980 1-182) (domain or fragment)
stoichiometry N [2]: 2

Nc1ncnc2c1ncn2[C@@H]1O[C@H](COP(=O)(O)OP(=O)(O)O)[C@@H](O)[C@H]1O [ADP]
Kd (NrdR [1]): 600 nM

Nc1ncnc2c1ncn2[C@@H]1O[C@H](COP(=O)(O)O)[C@@H](O)[C@H]1O [AMP]
KD (NrdR [3]): AMP, dAMP, and di-cyclic AMP were comparable to ATP in binding strengths

Nc1ncnc2c1ncn2[C@@H]1O[C@@H]2COP(=O)(O)O[C@H]3[C@@H](O)[C@H](n4cnc5c(N)ncnc54)O[C@@H]3COP(=O)(O)O[C@H]2[C@H]1O [cyclic di-AMP]
KD (NrdR [3]): AMP, dAMP, and di-cyclic AMP were comparable to ATP in binding strengths

Nc1ncnc2c1ncn2[C@H]1C[C@H](O)[C@@H](COP(=O)(O)O)O1 [dAMP]
KD (NrdR [3]): AMP, dAMP, and di-cyclic AMP were comparable to ATP in binding strengths

B1: Streptomyces coelicolor NrdR (wild type) (natural protein)
chain: T2 sequence
notes: RNR-specific transcriptional repressor NrdR of Streptomyces coelicolor strain M145; the nrdR gene cloned into pET30a(+), wild type; N-terminal Zn-ribbon domain followed by an ATP-cone domain and a C-terminal part; the wild-type nrdR gene was amplified, so probably the whole protein; Holds about 0.78 mol Zn per mol protein; also called apo-NrdR; ATP-loaded NrdR
stoichiometry N [4]: 8 and 4 | stoichiometry N [5]: 2 | stoichiometry N [6]: 12

B2: nrdAB promoter 57 bp (dsDNA)
DNA 1: CCGGGACACAACATCTGGGGGTGCTCGCGTCCCCCGGCACAAGATGTATGCTCATGC
DNA 2: GCATGAGCATACATCTTGTGCCGGGGGACGCGAGCACCCCCAGATGTTGTGTCCCGG
Kd (NrdR [7]): 159 ± 22 nM | Kd (NrdR [8]): 142 ± 31 nM

B3: nrdRJ promoter 57 bp (dsDNA)
DNA 1: GCCAATCCCCACATCTAGTGGTTGGATAGCGTGAGCAGCCCACAAGTTGTGGTCCCC
DNA 2: GGGGACCACAACTTGTGGGCTGCTCACGCTATCCAACCACTAGATGTGGGGATTGGC
Kd (NrdR [7]): 68 ± 16 nM | binding result (NrdR D15A/R17A): no binding | binding result (NrdR R17A): no binding | binding result (NrdR D15A): binds | Kd (NrdR [8]): 51 ± 11 nM

B4: nrdRJ T9/T18/T40/T49 (dsDNA)
DNA 1: B3 DNA 1 with C9T, G18T, C40T, G49T
DNA 2: B3 DNA 2 with C9A, G18A, C40A, G49A
binding result (NrdR R17A): no binding

B5: nrdRJ G9/C18 (dsDNA)
DNA 1: B3 DNA 1 with C9G, G18C
DNA 2: B3 DNA 2 with C40G, G49C
fold decrease in affinity vs wild-type DNA (NrdR [9]): ~50 fold lower affinity than wild-type DNA | binding result (NrdR R17A): no binding

B6: nrdRJ C18/C49 (dsDNA)
DNA 1: B3 DNA 1 with G18C, G49C
DNA 2: B3 DNA 2 with C9G, C40G
fold decrease in affinity vs wild-type DNA (NrdR [9]): ~60 fold lower affinity than wild-type DNA | binding result (NrdR R17A): no binding

B7: cydA promoter 57 bp (dsDNA)
DNA 1: GTAGGTCATAATTGCTTGTGAATGTGAACGCGTTCACAAGCGTGTCCCGATTGCGCC
DNA 2: GGCGCAATCGGGACACGCTTGTGAACGCGTTCACATTCACAAGCAATTATGACCTAC
binding result (NrdR R17A): no binding | Kd (NrdR D15A): 2600 ± 300 nM | binding result (NrdR [10]): no binding

Source: paper PMC9110341, “A nucleotide-sensing oligomerization mechanism that controls NrdR-dependent transcription of ribonucleotide reductases” (Nature Communications, 2022)
